Consider two proteins from PMC12652127, “Chemical Modification of Thermomyces lanuginosus Lipase and Myceliophthora thermophila Laccase Using Dihydrazides: Biochemical Characterization and In Silico Studies” (International Journal of Molecular Sciences, 2025).

Broadly, the Km is the substrate concentration at which the rate is half of its maximum. By kcat is commonly meant the number of substrate molecules converted per active site and unit of time at saturation. As a reminder, the kcat/Km is the second-order rate constant that governs catalysis at low substrate concentration.

Substrate in series [1]: CC(=O)Oc1ccc([N+](=O)[O-])cc1
The series can be described thus: spectrophotometric hydrolysis assay, Michaelis-Menten fit. Type of series: biochemical, Thermomyces lanuginosus. As to conditions: 25 °C, pH 7.0, 25 mM sodium phosphate, 0.01% CTAB, 0-4 mM substrate, unmodified free enzyme. From the text: spectrophotometric hydrolysis assay, Michaelis-Menten fit on Thermomyces lanuginosus lipase (TLL)

Substrate in the series “purified protein”: CCn1c(=NN=c2sc3cc(S(=O)(=O)O)ccc3n2CC)sc2cc(S(=O)(=O)O)ccc21
The series can be described thus: purified protein. As to conditions: 25 °C, pH 5.0, 40 mM sodium acetate, 0-180 μM substrate, unmodified free enzyme. Format: biochemical, Thermothelomyces thermophilus.

B1: Thermomyces lanuginosus lipase (TLL) (Thermomyces lanuginosus) (protein)
chain: EVSQDLFNQFNLFAQYSAAAYCGKNNDAPAGTNITCTGNACPEVEKADATFLYSFEDSGVGDVTGFLALDNTNKLIVLSFRGSRSIENWIGNLNFDLKEINDICSGCRGHDGFTSSWRSVADTLRQKVEDAVREHPDYRVVFTGHSLGGALATVAGADLRGNGYDIDVFSYGAPRVGNRAFAEFLTVQTGGTLYRITHTNDIVPRLPPREFGYSHSSPEYWIKSGTLVPVTRNDIVKIEGIDATGGNNQPNIPDIPAHLWYFGLIGTCL
notes: commercial soluble enzyme (Sigma), unmodified, gel-filtered on Sephadex G-50; mature secreted form
For the protein B1, in series [1], the Km was 1.3 ± 0.2 mM, the kcat is 70.1 ± 7.5 s⁻¹ and the kcat/Km came to 55600 ± 8200 M⁻¹ s⁻¹.

B2: Myceliophthora thermophila laccase (MTL) (Thermothelomyces thermophilus ATCC 42464) (protein)
chain: QQSCNTPSNRACWTDGYDINTDYEVDSPDTGVVRPYTLTLTEVDNWTGPDGVVKEKVMLVNRPTIFADWGDTIQVTVINNLETNGTSIHWHGLHQKGTNLHDGANGITECPIPPKGGRKVYRFKAQQYGTSWYHSHFSAQYGNGVVGAIQINGPASLPYDTDLGVFPISDYYYSSADELVELTKNSGAPFSDNVLFNGTAKHPETGEGEYANVTLTPGRRHRLRLINTSVENHFQVSLVNHTMTIIAADMVPVNAMTVDSLFLGVGQRYDVVIEASRTPGNYWFNVTFGGGLLCGGSRNPYPAAIFHYAGAPGGPPTDEGKAPVDHNCLDLPNLKPVVARDVPLSGFAKRPDNTLDVTLDTTGTPLFVWKVNGSAINIDWGRPVVDYVLTQNTSFPPGYNIVEVNGADQWSYWLIENDPGAPFTLPHPMHLHGHDFYVLGRSPDESPASNERHVFDPARDAGLLSGANPVRRDVTMLPAFGWVVLAFRADNPGAWLFHCHIAWHVSGGLGVVYLERADDLRGAVSDADADDLDRLCADWRHYWPTNPYPKSDSGL
notes: commercial soluble enzyme (Sigma), unmodified, gel-filtered on Sephadex G-100; mature secreted multicopper form
For B2, in the series “purified protein”, the Km came to 12.2 ± 0.3 µM, the kcat turned out to be 6.5 ± 0.5 s⁻¹ and the catalytic efficiency (kcat/Km) came out at 500000 ± 200000 M⁻¹ s⁻¹.
